# Test results as given in patent publication US20200087347 (published 2020).
# [ ]: non-standard residue; d: D form. N‑Me‑Lys‑pentyne = N-methyl-lysine carrying a pentyne (alkyne) group; Pro‑4‑NH‑hexyne = not defined here; dNMeF = CN[C@H](Cc1ccccc1)C(=O)O
# T1: integrin αvβ8 (human, UniProt P06756)
# T1 chain 1: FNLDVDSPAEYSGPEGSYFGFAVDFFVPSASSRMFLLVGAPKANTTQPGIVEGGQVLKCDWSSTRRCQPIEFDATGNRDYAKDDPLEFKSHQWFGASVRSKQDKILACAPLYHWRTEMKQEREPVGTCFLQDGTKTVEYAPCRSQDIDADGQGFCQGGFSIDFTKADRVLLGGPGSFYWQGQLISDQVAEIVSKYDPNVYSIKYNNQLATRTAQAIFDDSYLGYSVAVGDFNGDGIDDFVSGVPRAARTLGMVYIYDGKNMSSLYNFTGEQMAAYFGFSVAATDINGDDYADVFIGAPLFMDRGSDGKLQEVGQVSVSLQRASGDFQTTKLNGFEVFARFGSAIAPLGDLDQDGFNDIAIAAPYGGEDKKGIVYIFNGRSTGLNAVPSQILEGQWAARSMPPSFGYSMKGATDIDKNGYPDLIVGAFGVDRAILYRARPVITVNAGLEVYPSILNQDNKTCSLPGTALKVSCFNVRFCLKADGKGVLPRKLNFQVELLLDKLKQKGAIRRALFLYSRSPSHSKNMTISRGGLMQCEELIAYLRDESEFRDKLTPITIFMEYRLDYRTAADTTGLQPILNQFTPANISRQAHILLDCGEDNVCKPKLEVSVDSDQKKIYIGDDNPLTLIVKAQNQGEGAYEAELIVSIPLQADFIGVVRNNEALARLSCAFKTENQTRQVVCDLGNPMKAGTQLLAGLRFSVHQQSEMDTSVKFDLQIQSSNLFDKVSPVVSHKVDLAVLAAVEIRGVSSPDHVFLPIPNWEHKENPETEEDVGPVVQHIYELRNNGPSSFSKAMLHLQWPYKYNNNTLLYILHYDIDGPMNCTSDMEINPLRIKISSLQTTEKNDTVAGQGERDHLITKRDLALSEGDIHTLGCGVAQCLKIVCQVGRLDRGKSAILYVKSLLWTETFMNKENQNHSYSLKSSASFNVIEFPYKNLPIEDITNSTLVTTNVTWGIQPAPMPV
# T1 chain 2: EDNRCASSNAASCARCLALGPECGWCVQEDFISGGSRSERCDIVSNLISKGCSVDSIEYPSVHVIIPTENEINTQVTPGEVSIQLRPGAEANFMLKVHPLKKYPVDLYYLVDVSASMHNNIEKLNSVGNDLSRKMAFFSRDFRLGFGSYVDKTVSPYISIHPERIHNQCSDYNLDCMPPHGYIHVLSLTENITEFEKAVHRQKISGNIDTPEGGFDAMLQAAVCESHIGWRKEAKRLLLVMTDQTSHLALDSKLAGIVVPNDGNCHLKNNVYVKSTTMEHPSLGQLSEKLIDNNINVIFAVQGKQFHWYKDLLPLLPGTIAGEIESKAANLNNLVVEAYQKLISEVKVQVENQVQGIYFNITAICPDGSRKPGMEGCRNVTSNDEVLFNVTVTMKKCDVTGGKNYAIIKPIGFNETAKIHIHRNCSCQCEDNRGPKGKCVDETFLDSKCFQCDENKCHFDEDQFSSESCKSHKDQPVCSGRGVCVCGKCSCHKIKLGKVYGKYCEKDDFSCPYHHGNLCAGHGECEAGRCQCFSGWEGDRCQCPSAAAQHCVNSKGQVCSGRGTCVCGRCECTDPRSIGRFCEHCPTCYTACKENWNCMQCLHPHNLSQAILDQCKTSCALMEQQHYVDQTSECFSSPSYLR
# T2: integrin αvβ6 (human, UniProt P06756)
# T2 chain 1: T1 chain 1
# T2 chain 2: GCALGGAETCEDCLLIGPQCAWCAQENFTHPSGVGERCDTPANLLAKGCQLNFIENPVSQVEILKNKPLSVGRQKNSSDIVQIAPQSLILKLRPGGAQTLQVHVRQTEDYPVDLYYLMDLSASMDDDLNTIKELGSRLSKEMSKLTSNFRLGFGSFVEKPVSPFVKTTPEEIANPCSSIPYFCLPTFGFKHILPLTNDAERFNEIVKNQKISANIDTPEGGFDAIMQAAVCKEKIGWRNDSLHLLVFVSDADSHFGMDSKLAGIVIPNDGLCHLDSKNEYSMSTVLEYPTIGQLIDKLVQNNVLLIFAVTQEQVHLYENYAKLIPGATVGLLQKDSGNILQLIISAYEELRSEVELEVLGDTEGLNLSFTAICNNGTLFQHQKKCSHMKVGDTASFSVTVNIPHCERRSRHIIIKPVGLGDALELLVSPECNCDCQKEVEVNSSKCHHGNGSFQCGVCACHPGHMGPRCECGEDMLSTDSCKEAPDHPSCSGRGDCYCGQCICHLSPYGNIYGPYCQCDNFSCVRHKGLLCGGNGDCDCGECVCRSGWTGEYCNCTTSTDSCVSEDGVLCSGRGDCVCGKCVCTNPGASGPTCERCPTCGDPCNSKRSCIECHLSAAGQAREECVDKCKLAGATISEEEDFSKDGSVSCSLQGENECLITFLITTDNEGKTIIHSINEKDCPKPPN
# B1: Compound 12 (Table 1) (peptide)
# chain: cyclo(RGDL[dP][Pro‑4‑NH‑hexyne]GL)
# modifications: reading uncertain
# B2: Compound 7 (peptide)
# chain: cyclo(RGDL[dP]PAL)
# SMILES: CC(C)C[C@@H]1NC(=O)[C@H](C)NC(=O)[C@@H]2CCCN2C(=O)[C@H]2CCCN2C(=O)[C@H](CC(C)C)NC(=O)[C@H](CC(=O)O)NC(=O)CNC(=O)[C@H](CCCNC(=N)N)NC1=O
# B3: Compound 4 (peptide)
# chain: cyclo(RGDL[dP]PAY)
# SMILES: CC(C)C[C@@H]1NC(=O)[C@H](CC(=O)O)NC(=O)CNC(=O)[C@H](CCCNC(=N)N)NC(=O)[C@H](Cc2ccc(O)cc2)NC(=O)[C@H](C)NC(=O)[C@@H]2CCCN2C(=O)[C@H]2CCCN2C1=O
# B4: Compound 1 (peptide)
# chain: cyclo(RGDL[dP]PAL)
# SMILES: CC(C)C[C@@H]1NC(=O)[C@H](C)NC(=O)[C@@H]2CCCN2C(=O)[C@H]2CCCN2C(=O)[C@H](CC(C)C)NC(=O)[C@H](CC(=O)O)NC(=O)CNC(=O)[C@H](CCCNC(=N)N)NC1=O
# B5: Compound 10 (Table 1) (peptide)
# chain: cyclo(RGDL[dP]PAA)
# SMILES: CC(C)C[C@@H]1NC(=O)[C@H](CC(=O)O)NC(=O)CNC(=O)[C@H](CCCNC(=N)N)NC(=O)[C@H](C)NC(=O)[C@H](C)NC(=O)[C@@H]2CCCN2C(=O)[C@H]2CCCN2C1=O
# B6: Compound 11 (Table 1) (peptide)
# chain: cyclo(RGDL[dP][N‑Me‑Lys‑pentyne]GL)
# B7: Compound 13 (Table 1) (peptide)
# chain: cyclo(RGDL[dP]PAF)
# B8: Compound 6 (peptide)
# chain: cyclo(RGDL[dNMeF]PAL)
# SMILES: CC(C)C[C@@H]1NC(=O)[C@H](C)NC(=O)[C@@H]2CCCN2C(=O)[C@@H](Cc2ccccc2)N(C)C(=O)[C@H](CC(C)C)NC(=O)[C@H](CC(=O)O)NC(=O)CNC(=O)[C@H](CCCNC(=N)N)NC1=O
# B9: Compound 3 (peptide)
# chain: cyclo(RGDL[dP]PSL)
# SMILES: CC(C)C[C@@H]1NC(=O)[C@H](CO)NC(=O)[C@@H]2CCCN2C(=O)[C@H]2CCCN2C(=O)[C@H](CC(C)C)NC(=O)[C@H](CC(=O)O)NC(=O)CNC(=O)[C@H](CCCNC(=N)N)NC1=O
# B10: Compound 5 (peptide)
# chain: cyclo(RGDL[dP]PAH)
# SMILES: CC(C)C[C@@H]1NC(=O)[C@H](CC(=O)O)NC(=O)CNC(=O)[C@H](CCCNC(=N)N)NC(=O)[C@H](Cc2c[nH]cn2)NC(=O)[C@H](C)NC(=O)[C@@H]2CCCN2C(=O)[C@H]2CCCN2C1=O
# Target: T1, integrin αvβ8
# Assay: competition
row,IC50,Binder
1,8.8 nM,B1
2,1.31 nM,B2
3,1.1 nM,B3
4,1.4 nM,B4
5,8.1 nM,B5
6,1.7 nM,B6
7,1.83 nM,B7
8,9.4 nM,B8
9,12.5 nM,B9
10,2.2 nM,B10

# Target: T2, integrin αvβ6
# Assay: competition
row,IC50,Binder
1,217 nM,B1
2,32 nM,B2
3,156 nM,B3
4,84 nM,B4
5,114 nM,B5
6,41 nM,B6
7,81 nM,B7
8,139 nM,B8
9,187 nM,B9
10,171 nM,B10
